Data published in patent US20240069033A1 (Chugai, published 2024).
No end group written: not given here. puromycin linker = puromycin spacer joining the C-terminus of the translated peptide to its mRNA (mRNA display); mRNA = not defined here

Key:
[1] = target: T1, biotinylated splitNanoluc1-8; test: mRNA display pull-down with biotinylated splitNanoluc1-8 on streptavidin beads, qPCR
T1 chain: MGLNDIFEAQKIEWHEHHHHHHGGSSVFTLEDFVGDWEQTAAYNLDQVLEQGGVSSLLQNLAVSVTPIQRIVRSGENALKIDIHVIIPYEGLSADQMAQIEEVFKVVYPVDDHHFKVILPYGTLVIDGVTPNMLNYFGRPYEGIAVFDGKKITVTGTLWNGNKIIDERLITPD
Method: (§1) Each Display molecule before reacting with biotinylated splitNanoluc1-8 was also subjected to qPCR in the same way, and the input nucleic acid amount was calculated.

[2] = target: T1, biotinylated splitNanoluc1-8; test: mRNA display pull-down with biotinylated splitNanoluc1-8, qPCR
Method: as §1

For MVSGWRLFKKISGSGSGSGSENLYFQGKK-{puromycin linker-mRNA} (reading uncertain; also: mRNA reverse transcribed before assay, mRNA display molecule) [splitNanoluc-10], the binding result [1] was “no binding” and the “fold lower recovery rate than the splitNanoluc9-10 fusion peptide” value [2] was no less than 300 times.

For MGSMLFRVTINSGSGSGSGSENLYFQGKK-{puromycin linker-mRNA} (reading uncertain; also: mRNA reverse transcribed before assay, mRNA display molecule) [splitNanoluc-9], the binding result [1] was “no binding” and the “fold lower recovery rate than the splitNanoluc9-10 fusion peptide” value [2] was no less than 300 times.
